Legend:
[1] = target: T1, 5T4 on 5T4-expressing CHO-K1 cells (UniProt Q13641 32-420); assay: cell-based or functional assay
T1 sequence (looked up): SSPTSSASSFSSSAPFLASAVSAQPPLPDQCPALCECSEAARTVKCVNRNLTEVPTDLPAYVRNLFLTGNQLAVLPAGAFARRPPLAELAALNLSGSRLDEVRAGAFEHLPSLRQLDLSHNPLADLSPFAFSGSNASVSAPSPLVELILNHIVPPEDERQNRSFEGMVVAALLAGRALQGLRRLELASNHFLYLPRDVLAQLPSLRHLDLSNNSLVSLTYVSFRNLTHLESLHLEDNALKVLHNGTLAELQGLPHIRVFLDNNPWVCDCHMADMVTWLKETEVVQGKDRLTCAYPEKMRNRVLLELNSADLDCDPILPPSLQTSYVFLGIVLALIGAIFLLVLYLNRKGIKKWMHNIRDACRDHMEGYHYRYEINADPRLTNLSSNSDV

[2] = target: T2, recombinant human 5T4 protein (5T4/His) (human, UniProt Q13641 32-355); assay: ELISA, immobilized recombinant human 5T4, 0-500 nM (N=2)
T2 construct: also called Human 5T4/His; recombinant 5T4; not shown: His tag of the bought protein
T2 sequence: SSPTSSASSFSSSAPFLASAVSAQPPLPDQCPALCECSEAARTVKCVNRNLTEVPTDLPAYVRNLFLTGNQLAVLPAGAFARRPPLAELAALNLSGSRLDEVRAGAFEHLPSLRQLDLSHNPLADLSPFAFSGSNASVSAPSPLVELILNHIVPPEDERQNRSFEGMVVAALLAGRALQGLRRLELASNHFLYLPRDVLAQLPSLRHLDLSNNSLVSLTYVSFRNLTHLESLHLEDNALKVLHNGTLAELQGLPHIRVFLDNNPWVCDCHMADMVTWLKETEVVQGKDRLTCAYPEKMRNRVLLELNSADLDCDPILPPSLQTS
Procedure: The binding affinity of purified 53L10-M13 to 5T4 antigen was examined by ELISA (FIG. 14). A recombinant human 5T4 protein (ACRO Biosystems) was immobilized in a 96-well plate using the same method as that performed in FIG. 2 (Example 1). […] The curve showing the binding affinity of 53L10-M13 to 5T4 overlapped with the curve showing the binding affinity of 53L10 (●) to 5T4. The EC₅₀ values were 0.58 nM for 53L10-M13 and 0.53 nM for 53L10 (FIG. 14B).

[3] = target: T3, recombinant human PD-L1/Fc (human, UniProt Q9NZQ7 19-239, biotinylated in the competitive ELISA (sites not given)); assay: ELISA, immobilized recombinant human PD-L1/Fc, 0-500 nM (N=2)
T3 construct: Bought from R&D Systems; also called recombinant PD-L1 protein; biotinylated PD-L1 ligand; not shown: Fc part of the bought fusion
T3 sequence (Q9NZQ7 19-239 limits assumed): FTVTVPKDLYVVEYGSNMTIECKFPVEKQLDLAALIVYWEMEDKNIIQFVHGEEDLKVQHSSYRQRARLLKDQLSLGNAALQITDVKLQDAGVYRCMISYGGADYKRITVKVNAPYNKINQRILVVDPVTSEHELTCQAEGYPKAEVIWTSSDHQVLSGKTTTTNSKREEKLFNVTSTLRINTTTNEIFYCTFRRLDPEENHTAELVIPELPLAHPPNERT
Procedure: The binding affinity of purified 53L10-M13 to recombinant PD-L1 protein was examined by ELISA (FIG. 16). A recombinant human PD-L1/Fc protein (R&D Biosystems) was immobilized in a 96-well plate using the same method as that performed in Example 4. According to the procedure described in “Materials and Methods” later, the binding assay of 53L10-M13 and 53L10 to human PD-L1 protein was performed at increasing concentrations (0-500 nM). […] The curve showing the binding affinity of 53L10-M13 to PD-L1 overlapped with the curve showing the binding affinity of 53L10 (●) to PD-L1.

[4] = target: T2, recombinant human 5T4 protein (5T4/His); assay: ELISA, immobilized recombinant human 5T4, tribody 0-500 nM
Procedure: A recombinant human 5T4 protein (AMSBio) was immobilized onto 96-well ELISA plates. The binding assay of Tb535H and purified novel tribodies was performed by testing at increasing concentrations (0-500 nM) were carried out according to the procedure described in Materials and Methods. […] The Tb535H has two 5T4 binding arms derived from Fab and scFv, and the novel 53X tribody constructed has a monovalent 5T4 binding arm derived from a single Fab.

[5] = target: T4, recombinant human PD-1/Fc (human, UniProt Q15116 25-167); assay: ELISA, immobilized recombinant human PD-1 (per the legend of FIG. 4B; the sentence prints PD-L1)
T4 construct: Bought from R&D Systems; also called recombinant PD-1 protein; immobilized PD-1 receptor; not shown: Fc part of the bought fusion
T4 sequence (Q15116 25-167 limits assumed): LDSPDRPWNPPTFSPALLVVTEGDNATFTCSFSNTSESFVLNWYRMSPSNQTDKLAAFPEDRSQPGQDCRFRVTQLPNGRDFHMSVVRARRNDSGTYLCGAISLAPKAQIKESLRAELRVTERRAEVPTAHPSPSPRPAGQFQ
Description: To verify whether the novel tribodies including a binding arm to PD-L1 or PD-1 have a satisfactory binding affinity for their target recombinant proteins, we perfomed ELISA assays on immobilized PD-1 or PD-L1 proteins (FIG. 4).

B1: 53L10-M13 (other)
chain 1: QVQLVQSGAEVKKPGASVKVSCKASGYSFTSYYMHWVKQSPGQGLEWIGRINPNNGVTLYNQKFKDRVTMTRDTSISTAYMELSRLRSDDTAVYYCARSTMITNYVMDYWGQGTLVTVSSASTKGPSVFPLAPSSKSTSGGTAALGCLVKDYFPEPVTVSWNSGALTSGVHTFPAVLQSSGLYSLSSVVTVPSSSLGTQTYICNVNHKPSNTKVDKKVEPKSCDKTHTGPGGGSPGQVQLVQSGAELKKPGASVKVSCKASGYTFTRYTMHWVRQAPGQCLEWMGYINPSRGYTNYNQKFKDKATLTADKSTSTAYMELRSLRSDDTAVYYCARYYDDHYSLDYWGQGTLVTVSSASGGGGSGGGGSGGGGSAGDIQLTQSPSILSASVGDRVTITCRASSSVSYMNWYQQKPGKAPKRWIYDTSKVASGVPYRFSGSGSGTEYTLTISSMQPEDFATYYCQQWSSNPLTFGCGTKVEIKSG
chain 2: not shown
notes: also called 53L10 mutant; 53L0-M13
- EC50 of luciferase activity, T cell activation bioassay (NFAT) with CHO-5T4 target cells [1]: 0.016 nM
- EC50 [2]: 0.58 nM
- EC50 [3]: 36.9 nM

B2: 53D tribody (other)
chain 1: B1 chain 1
chain 2: not shown
notes: Trispecific tribody, a heterodimer; H chain derivative: VH(5T4)-CH1-scFv(hOKT3); L chain derivative: VL(5T4)-CL-scFv(PD-1.1); also called 5T4xCD3xPD-1
- binding result [4]: binds
- binding result [5]: binds

B3: 53P tribody (other)
chain 1: B1 chain 1
chain 2: not shown
notes: also called 5T4xCD3xisotype control
- binding result [4]: binds

B4: 53G tribody (other)
chain 1: B1 chain 1
chain 2: not shown
notes: Trispecific tribody, a heterodimer; L chain derivative: VL(5T4)-CL-scFv(LAG3.1); also called 5T4xCD3xLAG3
- binding result [4]: binds

From patent US20260242504A1 (CHIOME BIOSCIENCE, published 2026)
